Key:
[1] = molecular target: HIV-1 CAP256 SU gp140 NFL, plant-produced (Nicotiana benthamiana) (HIV-1 (CAP256 SU virus)); experiment: SEC
[2] = molecular target: HIV-1 CAP256 SU gp140 NFL, mammalian cell-produced (HEK293) (HIV-1 (CAP256 SU virus)); experiment: SEC
[3] = molecular target: HIV-1 CAP256 SU gp140 NFL, mammalian cell-produced (HEK293) (HIV-1 (CAP256 SU virus)); experiment: native gel or EMSA; BN-PAGE of the pooled trimer fractions on 4-12% NativePAGE Bis-Tris gels, Coomassie-stained

HIV-1 CAP256 SU gp140 NFL, plant-produced (Nicotiana benthamiana) (domain or fragment)
stoichiometry N [1]: 3

HIV-1 CAP256 SU gp140 NFL, mammalian cell-produced (HEK293) (domain or fragment)
stoichiometry N [2]: 3
stoichiometry N [3]: 3

From PMC8341435
